Measured values reported in paper PMC7534470 (The Plant Cell, 2020).

Biological target: T1, MBP-COP1 (Arabidopsis thaliana, UniProt P43254 1-675)
T1 sequence (looked up): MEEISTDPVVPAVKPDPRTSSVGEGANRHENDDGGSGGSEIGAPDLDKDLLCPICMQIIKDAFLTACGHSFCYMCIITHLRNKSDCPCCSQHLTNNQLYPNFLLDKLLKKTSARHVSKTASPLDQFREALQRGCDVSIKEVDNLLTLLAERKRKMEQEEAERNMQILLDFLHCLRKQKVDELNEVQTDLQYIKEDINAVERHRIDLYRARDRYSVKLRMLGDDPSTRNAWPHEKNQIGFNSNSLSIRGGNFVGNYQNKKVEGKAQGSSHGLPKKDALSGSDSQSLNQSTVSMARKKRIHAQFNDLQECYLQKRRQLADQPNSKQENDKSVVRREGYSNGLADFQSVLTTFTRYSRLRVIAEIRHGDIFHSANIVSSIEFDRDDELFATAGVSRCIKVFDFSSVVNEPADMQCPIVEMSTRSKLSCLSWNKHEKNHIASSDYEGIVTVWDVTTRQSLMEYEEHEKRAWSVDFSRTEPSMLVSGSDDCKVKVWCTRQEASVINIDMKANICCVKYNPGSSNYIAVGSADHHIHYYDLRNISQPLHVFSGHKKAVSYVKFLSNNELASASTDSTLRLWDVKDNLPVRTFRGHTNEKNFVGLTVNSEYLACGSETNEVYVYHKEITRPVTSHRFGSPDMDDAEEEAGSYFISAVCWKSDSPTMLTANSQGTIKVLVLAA
Assay: pull-down

binding result: binds
B1: His-COR27 (natural protein, Arabidopsis thaliana, UniProt Q8L8T7 1-246, looked up)
chain: MVGDYRGRFSSRRFSDDSDDSSDDASSVEGETTSSMYSAGKEYMETEWTNEKHSLYLKSMEASFVDQLYNSLGALGKNENVSESTRFGSGRKPSQEQFKVLHDGFWQKINVKQPEHRINGRHGGNSHEFLRSPWIKHYKPLVKTQIPVTDEPENQVVSSSNGKKGICSSGSASSLKQLSSHSRDHDQISVGEAEVSDQNFVNEGIKGENGSSKKMKTVMMSESSSTDQVVPLNKLLQHDVNLKSVS
